± gives the uncertainty stated by the source.
What was measured:
[1] = specific initial activity, cyclohex-2-enone reduction (U mg-1); higher = more active; conditions: co-solvent: methanol
Procedure: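 Specific initial activity of purified ene reductases with 10 mM cyclohex-2-enone and 0.2 mM NAD(P)H in 50 mM sodium phosphate pH 7.4 with 0-45% (v/v) ethanol or methanol, at set reaction temperatures of 25-45 °C. NAD(P)H depletion was followed at 340 nm for 480 s, in triplicate.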

[2] = as above
Procedure: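 Purified His-tagged ene reductases in 50 mM sodium phosphate pH 7.4 with 0-30% (v/v) organic co-solvent. Melting temperature was measured by the ThermoFMN assay (FMN fluorescence, 20-90 °C at 1 °C/min, inflection point, triplicate). Specific initial activity was measured with 10 mM cyclohex-2-enone and 0.2 mM NAD(P)H (NADH for LacER) as A340 depletion, at room temperature (DMSO, 2-propanol, n-propanol) or 25 °C (EtOH, MeOH), in triplicate. The TsOYE Tm is above the 90 °C measurement range.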

Sequence: MSFVKDFKPQALGDTNLFKPIKIGNNELLHRAVIPPLTRMRALHPGNIPNRDWAVEYYTQRAQRPGTMIITEGAFISPQAGGYDNAPGVWSEEQMVEWTKIFNAIHEKKSFVWVQLWVLGWAAFPDNLARDGLRYDSASDNVFMDAEQEAKAKKANNPQHSLTKDEIKQYIKEYVQAAKNSIAAGADGVEIHSANGYLLNQFLDPHSNTRTDEYGGSIENRARFTLEVVDALVEAIGHEKVGLRLSPYGVFNSMSGGAETGIVAQYAYVAGELEKRAKAGKRLAFVHLVEPRVTNPFLTEGEGEYEGGSNDFVYSIWKGPVIRAGNFALHPEVVREEVKDKRTLIGYGRFFISNPDLVDRLEKGLPLNKYDRDTFYQMSAHGYIDYPTYEEALKLGWDKK
- specific initial activity ([1]; co-solvent concentration (% v/v): 15, reaction temperature 35 °C): 0.55 ± 0.04
- specific initial activity ([1]; co-solvent concentration (% v/v): 15, reaction temperature 40 °C): 0.09 ± 0.07
- specific initial activity ([1]; co-solvent concentration (% v/v): 15, reaction temperature 45 °C): 0.04 ± 0.04
- specific initial activity ([1]; co-solvent concentration (% v/v): 20, reaction temperature 25 °C): 0.37 ± 0.04
- specific initial activity ([1]; co-solvent concentration (% v/v): 20, reaction temperature 30 °C): 0.43 ± 0.01
- specific initial activity ([1]; co-solvent concentration (% v/v): 20, reaction temperature 35 °C): 0.4 ± 0.08
- specific initial activity ([1]; co-solvent concentration (% v/v): 20, reaction temperature 40 °C): 0.02 ± 0.04
- specific initial activity ([1]; co-solvent concentration (% v/v): 20, reaction temperature 45 °C): 0.01 ± 0.01
- specific initial activity ([1]; co-solvent concentration (% v/v): 25, reaction temperature 25 °C): 0.31 ± 0.06
- specific initial activity ([1]; co-solvent concentration (% v/v): 25, reaction temperature 30 °C): 0.3 ± 0.01
- specific initial activity ([1]; co-solvent concentration (% v/v): 25, reaction temperature 35 °C): 0.06 ± 0.04
- specific initial activity ([1]; co-solvent concentration (% v/v): 25, reaction temperature 40 °C): 0.02 ± 0.01
- specific initial activity ([1]; co-solvent concentration (% v/v): 25, reaction temperature 45 °C): 0.02 ± 0.01
- specific initial activity ([1]; co-solvent concentration (% v/v): 30, reaction temperature 25 °C): 0.19 ± 0.03
- specific initial activity ([1]; co-solvent concentration (% v/v): 30, reaction temperature 30 °C): 0.14 ± 0.02
- specific initial activity ([1]; co-solvent concentration (% v/v): 30, reaction temperature 35 °C): 0.01
- specific initial activity ([1]; co-solvent concentration (% v/v): 30, reaction temperature 40 °C): 0.01 ± 0.01
- specific initial activity ([1]; co-solvent concentration (% v/v): 30, reaction temperature 45 °C): 0 ± 0.01
- specific initial activity ([1]; co-solvent concentration (% v/v): 35, reaction temperature 25 °C): 0.03 ± 0.02
- specific initial activity ([1]; co-solvent concentration (% v/v): 35, reaction temperature 30 °C): 0.04 ± 0.03
- specific initial activity ([1]; co-solvent concentration (% v/v): 35, reaction temperature 35 °C): 0.01
- specific initial activity ([1]; co-solvent concentration (% v/v): 35, reaction temperature 40 °C): 0
- specific initial activity ([1]; co-solvent concentration (% v/v): 35, reaction temperature 45 °C): 0
- specific initial activity ([1]; co-solvent concentration (% v/v): 40, reaction temperature 25 °C): 0.02 ± 0.02
- specific initial activity ([1]; co-solvent concentration (% v/v): 40, reaction temperature 30 °C): 0.03 ± 0.01
- specific initial activity ([1]; co-solvent concentration (% v/v): 40, reaction temperature 35 °C): 0 ± 0.01
- specific initial activity ([1]; co-solvent concentration (% v/v): 40, reaction temperature 40 °C): 0.01 ± 0.01
- specific initial activity ([1]; co-solvent concentration (% v/v): 40, reaction temperature 45 °C): 0.01 ± 0.01
- specific initial activity ([1]; co-solvent concentration (% v/v): 45, reaction temperature 25 °C): 0.01
- specific initial activity ([1]; co-solvent concentration (% v/v): 45, reaction temperature 30 °C): 0.03
- specific initial activity ([1]; co-solvent concentration (% v/v): 45, reaction temperature 35 °C): 0.01
- specific initial activity ([1]; co-solvent concentration (% v/v): 45, reaction temperature 40 °C): 0.01 ± 0.01
- specific initial activity ([1]; co-solvent concentration (% v/v): 45, reaction temperature 45 °C): 0 ± 0.01
- specific initial activity ([2]; co-solvent: 2-propanol, co-solvent concentration (% v/v): 0): 1.22 ± 0.04
- specific initial activity ([2]; co-solvent: 2-propanol, co-solvent concentration (% v/v): 5): 1.54 ± 0.08
- specific initial activity ([2]; co-solvent: 2-propanol, co-solvent concentration (% v/v): 10): 1.7 ± 0.08
- specific initial activity ([2]; co-solvent: 2-propanol, co-solvent concentration (% v/v): 15): 1.86 ± 0.06
- specific initial activity ([2]; co-solvent: 2-propanol, co-solvent concentration (% v/v): 20): 1.8 ± 0.1
- specific initial activity ([2]; co-solvent: 2-propanol, co-solvent concentration (% v/v): 25): 2 ± 0.09
- specific initial activity ([2]; co-solvent: 2-propanol, co-solvent concentration (% v/v): 30): 2.05 ± 0.07
- specific initial activity ([2]; co-solvent: dimethyl sulfoxide, co-solvent concentration (% v/v): 0): 1.31 ± 0.12
- specific initial activity ([2]; co-solvent: dimethyl sulfoxide, co-solvent concentration (% v/v): 5): 1.43 ± 0.16
- specific initial activity ([2]; co-solvent: dimethyl sulfoxide, co-solvent concentration (% v/v): 10): 1.35 ± 0.05
- specific initial activity ([2]; co-solvent: dimethyl sulfoxide, co-solvent concentration (% v/v): 15): 1.31 ± 0.14
- specific initial activity ([2]; co-solvent: dimethyl sulfoxide, co-solvent concentration (% v/v): 20): 1.38 ± 0.06
- specific initial activity ([2]; co-solvent: dimethyl sulfoxide, co-solvent concentration (% v/v): 25): 1.32 ± 0.13
- specific initial activity ([2]; co-solvent: dimethyl sulfoxide, co-solvent concentration (% v/v): 30): 1.32 ± 0.08
- specific initial activity ([2]; co-solvent: ethanol, co-solvent concentration (% v/v): 0): 1.49 ± 0.06
- specific initial activity ([2]; co-solvent: ethanol, co-solvent concentration (% v/v): 5): 1.58 ± 0.11
- specific initial activity ([2]; co-solvent: ethanol, co-solvent concentration (% v/v): 10): 1.78 ± 0.1
- specific initial activity ([2]; co-solvent: ethanol, co-solvent concentration (% v/v): 15): 1.97 ± 0.14
- specific initial activity ([2]; co-solvent: ethanol, co-solvent concentration (% v/v): 20): 2 ± 0.17
- specific initial activity ([2]; co-solvent: ethanol, co-solvent concentration (% v/v): 25): 2.1 ± 0.04
- specific initial activity ([2]; co-solvent: ethanol, co-solvent concentration (% v/v): 30): 2.46 ± 0.11
- specific initial activity ([2]; co-solvent: methanol, co-solvent concentration (% v/v): 0): 1.55 ± 0.06
- specific initial activity ([2]; co-solvent: methanol, co-solvent concentration (% v/v): 5): 1.72 ± 0.05
- specific initial activity ([2]; co-solvent: methanol, co-solvent concentration (% v/v): 10): 1.81 ± 0.07
- specific initial activity ([2]; co-solvent: methanol, co-solvent concentration (% v/v): 15): 2.07 ± 0.07
- specific initial activity ([2]; co-solvent: methanol, co-solvent concentration (% v/v): 20): 2.23 ± 0.15
- specific initial activity ([2]; co-solvent: methanol, co-solvent concentration (% v/v): 25): 2.42 ± 0.11
- specific initial activity ([2]; co-solvent: methanol, co-solvent concentration (% v/v): 30): 2.58 ± 0.11
- specific initial activity ([2]; co-solvent: n-propanol, co-solvent concentration (% v/v): 0): 1.3 ± 0.03
- specific initial activity ([2]; co-solvent: n-propanol, co-solvent concentration (% v/v): 5): 1.59 ± 0.06
- specific initial activity ([2]; co-solvent: n-propanol, co-solvent concentration (% v/v): 10): 1.83 ± 0.2
- specific initial activity ([2]; co-solvent: n-propanol, co-solvent concentration (% v/v): 15): 1.81 ± 0.18
- specific initial activity ([2]; co-solvent: n-propanol, co-solvent concentration (% v/v): 20): 1.86 ± 0.15
- specific initial activity ([2]; co-solvent: n-propanol, co-solvent concentration (% v/v): 25): 1.84 ± 0.13
- specific initial activity ([2]; co-solvent: n-propanol, co-solvent concentration (% v/v): 30): 1.96 ± 0.14
